± gives the standard deviation of the averaged measurements.
Legend:
Saccharomyces cerevisiae [1] = experiment: protein stability index of tFT-peptide fusion (C-terminal peptide) (PSI (0-1 scale)); higher = more stable (slower turnover)
Description: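 MPS profiling in S. cerevisiae of the tFT-X12 degron library: putative degron peptides plus stable controls, 12 aa, fused to the C-terminus of a sfGFP-mCherry timer. Cells are FACS-sorted into 8 mCherry/sfGFP bins and deep-sequenced. PSI runs from 0 (unstable) to 1 (stable). Backgrounds are wild type, das1Δ and doa10Δ at 30 °C, and wild type, das1Δ, cdc34-1 and cdc53-1 at 37 °C; 2-3 technical replicates each.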

Saccharomyces cerevisiae [2] = experiment: as above; settings: genetic background: wild type; temperature: 30 C
[3] = genetic background: cdc34-1, temperature: 37 C
[4] = genetic background: cdc53-1, temperature: 37 C
[5] = genetic background: das1 deletion, temperature: 30 C
[6] = genetic background: das1 deletion, temperature: 37 C
[7] = genetic background: doa10 deletion, temperature: 30 C
[8] = genetic background: wild type, temperature: 30 C
[9] = genetic background: wild type, temperature: 37 C
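Also: PSI is a weighted mean of sequencing reads over stability bins, variants kept only with over 10 reads, mCherry proximal and sfGFP distal, peptide attached via GGGS linker.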

| Sequence | protein stability index (Saccharomyces cerevisiae [1]; [3]) | protein stability index (Saccharomyces cerevisiae [1]; [4]) | protein stability index (Saccharomyces cerevisiae [1]; [5]) | protein stability index (Saccharomyces cerevisiae [1]; [6]) | protein stability index (Saccharomyces cerevisiae [1]; [7]) | protein stability index (Saccharomyces cerevisiae [1]; [8]) | protein stability index (Saccharomyces cerevisiae [1]; [9]) | protein stability index (Saccharomyces cerevisiae [2]) |
| --- | --- | --- | --- | --- | --- | --- | --- | --- |
| WVVVARIFSVFF | 0.484 ± 0.014 | 0.561 ± 0.02 | 0.445 ± 0.0061 | 0.57 ± 0.0013 | 0.308 ± 0.011 | 0.35 ± 0.018 | 0.469 ± 0.038 | 0.515 ± 0.12 |
| WVVVKITAHTAT | 0.323 ± 0.028 | 0.38 ± 0.021 | 0.22 ± 0.02 | 0.405 ± 0.018 | 0.185 ± 0.0081 | 0.222 ± 0.021 | 0.4 ± 0.0065 | 0.326 ± 0.016 |
| WYAGIVFTRVWM | 0.54 ± 0.01 | 0.611 ± 0.026 | 0.487 ± 0.015 | 0.654 ± 0.03 | 0.466 ± 0.015 | 0.482 ± 0.02 | 0.622 ± 0.013 | 0.5 ± 0.0095 |
| YAFLWCVFYLSF | 0.228 ± 0.0071 | 0.235 ± 0.03 | 0.222 ± 0.028 | 0.337 ± 0.01 | 0.216 ± 0.0098 | 0.196 ± 0.017 | 0.305 ± 0.0082 | 0.289 ± 0.021 |
| YCCDYFMFVLVV | 0.148 ± 0.0029 | 0.189 ± 0.024 | 0.206 ± 0.044 | 0.3012 ± 0.0022 | 0.184 ± 0.009 | 0.183 ± 0.032 | 0.248 ± 0.01 | 0.255 ± 0.033 |
| YDLRRIGRIGVG | 0.316 ± 0.02 | 0.404 ± 0.012 | 0.348 ± 0.019 | 0.402 ± 0.016 | 0.3542 ± 0.003 | 0.338 ± 0.0099 | 0.381 ± 0.026 | 0.363 ± 0.016 |
| YFIVVSWFLVCW | 0.0981 ± 0.019 | 0.199 ± 0.022 | 0.114 ± 0.029 | 0.218 ± 0.0028 | 0.072 ± 0.017 | 0.121 ± 0.0079 | 0.168 ± 0.029 | 0.184 ± 0.005 |
| YFLFRYIVITVF | 0.0486 ± 0.029 | 0.0672 ± 0.021 | 0.0711 ± 0.025 | 0.135 ± 0.026 | 0.0326 ± 0.015 | 0.0569 ± 0.012 | 0.06947 ± 0.00069 | 0.0865 ± 0.032 |
| YFRKDYRKMAQH | 0.594 ± 0.049 | 0.74478 ± 0.00072 | 0.669 ± 0.06 | 0.7429 ± 0.0026 | 0.17256 ± 0.00013 | 0.163 ± 0.046 | 0.453 ± 0.055 | 0.255 ± 0.15 |
| YGAGDLTKYFIV | 0.637 ± 0.037 | 0.684 ± 0.046 | 0.607 ± 0.0086 | 0.726 ± 0.039 | 0.114 ± 0.0065 | 0.122 ± 0.028 | 0.174 ± 0.034 | 0.106 ± 0.016 |
| YHFRLLVTCCPC | 0.273 ± 0.0031 | 0.325 ± 0.0097 | 0.264 ± 0.016 | 0.38 ± 0.01 | 0.225 ± 0.0037 | 0.257 ± 0.0088 | 0.351 ± 0.015 | 0.321 ± 0.0033 |
| YLCCFSVAFFLG | 0.175 ± 0.0039 | 0.331 ± 0.098 | 0.206 ± 0.039 | 0.3961 ± 0.00067 | 0.131 ± 4.8e-05 | 0.153 ± 0.018 | 0.317 ± 0.024 | 0.257 ± 0.072 |
| YLFDQYDWYKSM | 0.643 ± 0.063 | 0.7663 ± 0.007 | 0.666 ± 0.041 | 0.8049 ± 0.0067 | 0.156 ± 0.0072 | 0.162 ± 0.027 | 0.348 ± 0.02 | 0.368 ± 0.081 |
| YLLTAFLSAFNP | 0.554 ± 0.054 | 0.683 ± 0.018 | 0.543 ± 0.019 | 0.55 ± 0.0074 | 0.529 ± 0.041 | 0.522 ± 0.031 | 0.537 ± 0.02 | 0.495 ± 0.11 |
| YLMVSKMSLRIG | 0.602 ± 0.021 | 0.643 ± 0.0084 | 0.532 ± 0.021 | 0.609 ± 0.017 | 0.296 ± 0.054 | 0.306 ± 0.026 | 0.516 ± 0.025 | 0.401 ± 0.0052 |
| YPGMFLQLVWWI | 0.4297 ± 0.0022 | 0.552 ± 0.036 | 0.433 ± 0.03 | 0.5804 ± 0.0042 | 0.1211 ± 0.0011 | 0.117 ± 0.0026 | 0.126 ± 0.0019 | 0.176 ± 0.026 |
| YPSASLLPLFSC | 0.594 ± 0.06 | 0.733 ± 0.017 | 0.622 ± 0.014 | 0.748 ± 0.015 | 0.126 ± 0.018 | 0.136 ± 0.017 | 0.184 ± 0.016 | 0.171 ± 0.004 |
| YQFDGLVFLRLS | 0.716 ± 0.02 | 0.724 ± 0.0064 | 0.645 ± 0.014 | 0.774 ± 0.018 | 0.3501 ± 0.0014 | 0.4 ± 0.017 | 0.6515 ± 0.00071 | 0.4808 ± 0.0011 |
| YRFVWRWIPICA | 0.0342 ± 0.01 | 0.0919 ± 0.045 | 0.12 ± 0.038 | 0.116 ± 0.032 | 0.0307 ± 0.0093 | 0.038 ± 0.014 | 0.057 ± 0.026 | 0.0631 ± 0.022 |
| YRWERIYIGLRL | 0.397 ± 0.037 | 0.523 ± 0.036 | 0.49 ± 0.039 | 0.615 ± 0.019 | 0.191 ± 0.008 | 0.188 ± 0.018 | 0.36 ± 0.0093 | 0.291 ± 0.024 |
| YSALHNPPQPVT | 0.665 ± 0.032 | 0.725 ± 0.014 | 0.6556 ± 0.0065 | 0.7216 ± 0.0049 | 0.658 ± 0.014 | 0.658 ± 0.011 | 0.6971 ± 0.0062 | 0.736 ± 0.02 |
| YTLWFLAWGLVF | 0.262 ± 0.036 | 0.308 ± 0.016 | 0.241 ± 0.033 | 0.3865 ± 0.0028 | 0.209 ± 0.011 | 0.22 ± 0.034 | 0.36 ± 0.025 | 0.315 ± 0.023 |
| YWRNYLVLVCKF | 0.836 ± 0.04 | 0.794 ± 0.075 | 0.592 ± 0.023 | 0.778 ± 0.023 | 0.487 ± 0.07 | 0.481 ± 0.046 | 0.613 ± 0.024 | 0.359 ± 0.065 |
| YYLHFRFFIYVF | 0.0536 ± 0.019 | 0.0916 ± 0.0088 | 0.108 ± 0.035 | 0.201 ± 0.0051 | 0.0759 ± 0.019 | 0.0626 ± 0.013 | 0.13 ± 0.0084 | 0.113 ± 0.031 |

Reference: the supplement of paper PMC10724198
